US20230287120A1 (ALLOGENE THERAPEUTICS, published 2023)

T1: Flag tagged recombinant DLL3 (Adipogen) (Homo sapiens (Human), UniProt Q9NYJ7 27-492)
T1 construct: Bought reagent; also called Flag-DLL3
T1 sequence: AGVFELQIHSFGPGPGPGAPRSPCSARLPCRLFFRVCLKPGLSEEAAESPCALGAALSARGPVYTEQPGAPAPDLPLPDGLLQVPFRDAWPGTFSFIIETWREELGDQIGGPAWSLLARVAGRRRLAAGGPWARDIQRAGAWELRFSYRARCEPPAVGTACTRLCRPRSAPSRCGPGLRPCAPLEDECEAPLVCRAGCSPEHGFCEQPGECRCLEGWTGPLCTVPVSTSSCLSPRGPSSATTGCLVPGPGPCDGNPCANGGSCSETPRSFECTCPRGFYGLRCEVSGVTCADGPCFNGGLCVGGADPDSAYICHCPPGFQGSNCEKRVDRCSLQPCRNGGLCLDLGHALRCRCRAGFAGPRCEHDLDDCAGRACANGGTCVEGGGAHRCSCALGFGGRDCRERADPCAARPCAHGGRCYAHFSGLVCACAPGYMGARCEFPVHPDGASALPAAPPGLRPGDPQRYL

B1: 7F9 (other)
CAR: EVQLVESGGGLVQPGGSLRLSCAASGFTFSSHDMHWVRQATGKGLEWVSAIGIAGDTYYSGSVKGRFTISRENAKNSLYLQMNSLRAGDTAVYYCARANWGEGAFDIWGQGTMVTVSSGGGGSGGGGSGGGGSGGGGSDIQMTQSPSSLSASVGDRVTITCRASQGISDYLAWYQQKPGKIPKLLIYAASTLQSGVPSRFSGSGSGTDFTLTISSLQPEDVATYYCQKYNSVPLTFGGGTKVEIKTTTPAPRPPTPAPTIASQPLSLRPEACRPAAGGAVHTRGLDFACDIYIWAPLAGTCGVLLLSLVITKRGRKKLLYIFKQPFMRPVQTTQEEDGCSCRFPEEEEGGCELRVKFSRSADAPAYQQGQNQLYNELNLGRREEYDVLDKRRGRDPEMGGKPRRKNPQEGLYNELQKDKMAEAYSEIGMKGERRRGKGHDGLYQGLSTATKDTYDALHMQALPPR
notes: also called anti-DLL3 CAR with 7F9 scFv, on primary T cells
B2: 8E11 (other)
CAR: QVQLQESGPGLVKPSETLSLTCTVSGDSISNYYWTWIRQPPGKGLEWIGYIYYSGTTNSNPSLKSRVTVSLDTSKSQFSLNLSSVTAADTAVYYCARVFNRGFAFDIWGQGTMVTVSSGGGGSGGGGSGGGGSGGGGSEIVLTQSPGTLSLSPGERATLSCRASQRISNTYLAWYQQKPGQAPRLLIYGASSRATGIPDRFSGSGSGTDFTLTISRLEPEDFAAYYCQQYDTSPLTFGGGTKVEIKTTTPAPRPPTPAPTIASQPLSLRPEACRPAAGGAVHTRGLDFACDIYIWAPLAGTCGVLLLSLVITKRGRKKLLYIFKQPFMRPVQTTQEEDGCSCRFPEEEEGGCELRVKFSRSADAPAYQQGQNQLYNELNLGRREEYDVLDKRRGRDPEMGGKPRRKNPQEGLYNELQKDKMAEAYSEIGMKGERRRGKGHDGLYQGLSTATKDTYDALHMQALPPR
notes: also called anti-DLL3 CAR with 8E11 scFv, on primary T cells
B3: 5A2 (other)
CAR: QVQLQESGPGLMKPSETLSLTCTVSGGSISSSYWSCIRQPPGKGLEWIGYIYYSGTTNYNPSLKSRVTLSLDTSKNQFSLRLTSVTAADTAVYYCARVAPTGFWFDYWGQGTLVTVSSGGGGSGGGGSGGGGSGGGGSEIVLTQSPGTLSLSPGERATLSCRASQRVSSRYLAWYQQKPGQAPRLLIYGASSRATGIPDRFSGSGSGTDFTLTISRLEPEEFAVYYCQQYGTSPLTFGGGTKVEIKTTTPAPRPPTPAPTIASQPLSLRPEACRPAAGGAVHTRGLDFACDIYIWAPLAGTCGVLLLSLVITKRGRKKLLYIFKQPFMRPVQTTQEEDGCSCRFPEEEEGGCELRVKFSRSADAPAYQQGQNQLYNELNLGRREEYDVLDKRRGRDPEMGGKPRRKNPQEGLYNELQKDKMAEAYSEIGMKGERRRGKGHDGLYQGLSTATKDTYDALHMQALPPR
notes: also called anti-DLL3 CAR with 5A2 scFv, on primary T cells
B4: 6D8 (other)
CAR: QITLKESGPTLVKPTQTLTLTCTFSGFSLSTRGVGVGWIRQPPGKALEWLALIYWNDDKRYSPSLQTRLTITKDTPKNQVVLTMTNMDPVDTATYYCARSNWGNWYFALWGRGTLVTVSSGGGGSGGGGSGGGGSGGGGSEIVLTQSPATLSLSPGERATLSCRASQSVSSYLAWYQQKPGQAPRLLIYDAFYRATGIPARFSGSGSGTDFTLTISSLEPEDFAVYYCQHRSNWPITFGQGTRLEIKTTTPAPRPPTPAPTIASQPLSLRPEACRPAAGGAVHTRGLDFACDIYIWAPLAGTCGVLLLSLVITKRGRKKLLYIFKQPFMRPVQTTQEEDGCSCRFPEEEEGGCELRVKFSRSADAPAYQQGQNQLYNELNLGRREEYDVLDKRRGRDPEMGGKPRRKNPQEGLYNELQKDKMAEAYSEIGMKGERRRGKGHDGLYQGLSTATKDTYDALHMQALPPR
notes: also called anti-DLL3 CAR with 6D8 scFv, on primary T cells

What follows are binders tested against T1, Flag tagged recombinant DLL3 (Adipogen) (assay: flow cytometry, primary T cells with the CAR, 1 ug/ml Flag tagged recombinant DLL3, PE anti-Flag).
Experimental: (§1) To determine the percentage of T cells that were successfully transduced with DLL3 CAR, T cells were first incubated with 1 ug/ml Flag tagged recombinant DLL3 (Adipogen) in PBS+1% BSA for 20 minutes at 4 C.
In the case of B1, the “Rec-DLL3 gate, percent of live CD3+ cells” value (“Rec-DLL3 gate, percent” for short) is reported as 42.2%. With B2 the “Rec-DLL3 gate, percent” value was 39.1%. In the case of B3, the “Rec-DLL3 gate, percent” value is reported as 49.1%. For B4, the “Rec-DLL3 gate, percent” value was 32.4%.

These binders were tested against T1, Flag tagged recombinant DLL3 (Adipogen) (assay: flow cytometry, percent of T cells that recognise recombinant DLL3, Donor 116).
Experimental: as §1
B1 was tested, and the Transduction efficiency was 42.2%. Binder B2 has a Transduction efficiency of 39.1%. B3 showed a Transduction efficiency of 49.1%. B4 was tested, and the Transduction efficiency was 32.4%.

Each binder was assayed against T1, Flag tagged recombinant DLL3 (Adipogen) (assay: flow cytometry, percent of T cells that recognise recombinant DLL3, Donor 117).
Experimental: as §1
Work on B1 yielded a Transduction efficiency of 37.4%. In the case of B2, the Transduction efficiency is reported as 41.4%. Work on B3 yielded a Transduction efficiency of 47.4%. B4 showed a Transduction efficiency of 34.8%.
